# From publication PMC3597719
# Target: NS1 protein expressed in yeast cells (UniProt P14340)
substance,measurement,value
NS1 protein expressed in yeast cells (from UniProt P14340 776-1127) (natural protein),stoichiometry N,2
